# In patent US20220411532A1 (GUNDERSEN LUTHERAN MEDICAL FOUNDATION, published 2022):
# T1: peptide representing uncleaved AREG (human)
# T1 construct: also called full length AREG peptide; intact AREG
# T1 peptide: SMKTHSMIDSSLSKIAC
# T2: cleaved amphiregulin (cell-associated transmembrane stalk left after TACE/ADAM17 cleavage of human AREG) (human, UniProt P15514 188-252)
# T2 construct: Endogenous protein on MCF7 cells and in formalin-fixed human tumor tissue; also called cleaved AREG; cell surface cleaved AREG
# T2 sequence: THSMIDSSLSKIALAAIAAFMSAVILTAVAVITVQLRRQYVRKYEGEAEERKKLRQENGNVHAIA
# Tests used:
# [1] = biological target: T1, peptide representing uncleaved AREG; test: ELISA on peptides representing cleaved and uncleaved AREG
# [2] = biological target: T2, cleaved amphiregulin (cell-associated …); test: live-cell fluorescence imaging of MCF-7 cells with 1A3-pHrodo
# Method: In order to study internalization, 1A3 was conjugated with pHrodo iFL Red dye using pHrodo iFL Red Microscale Protein Labeling Kit (P36014, Thermo Fisher Scientific). MCF7 cells were seeded in 12 mm Nunc Glass Bottom Dish, at a density of 1×10⁵ cells/dish. After allowing the cells to attach overnight, the cells were incubated for 60 min with […] Hoechst dye for nuclei staining and LysoTracker® Green DND-26 (Thermo Fisher Scientific) for lysosomal labeling. The cells were then incubated with 1A3-pHrodo (2 μg/mL) for 20 min at 37° C. After washing the wells with PBS, the cells were supplemented with 1× live-cell imaging solution (Molecular probes, Thermo Fisher Scientific). Fluorescence images were acquired at 30 min intervals for 2.5 h with the Olympus 1X71 inverted fluorescence microscope (Olympus, Shinjuku, Tokyo, Japan). TAPI-2 (20 μM)—pre-treatment was performed overnight, with DMSO serving as a control.
# [3] = biological target: T2, cleaved amphiregulin (cell-associated …); test: immunohistochemistry on a breast tumor tissue micro-array, 10 µg/mL antibody
# Method: A breast disease spectrum tissue micro-array was purchased from US Biomax Inc. (Derwood, Md., USA). The slides were deparaffinized in xylene and rehydrated by serial incubations in graded ethanol and then in water in a Histo-Tek® SL Slide Stainer (Sakura Finetek USA, Inc., Torrance, Calif., USA). Antigen retrieval was performed in a steamer by boiling slides in a container of citrate buffer (pH 6.0) for 20 min, which was then removed for 15 min of cooling on the benchtop. Slides were washed in 1× Wash buffer (Dako Agilent, Santa Clara, Calif., USA) and endogenous peroxidase was quenched by incubating with Dako Dual Endogenous Enzyme Block (S2003) for 10 min. […] Slides were washed four times in 1× Wash buffer, followed by the incubation for 45 min at room temperature in 1:100 dilution of […] immunoglobulins/HRP (Dako, P0160 or ready-to-use goat anti-rabbit HRP labeled polymer (Dako, K4003). The slides were washed twice in 1× Wash buffer and the color was developed with 3,3-diaminobenzidine tetrahydrochloride substrate chromogen system (K3468, DAKO, Santa Clara, Calif., USA). Sections were washed with water and counterstained with hematoxylin, rinsed with water, dehydrated by serial ethanol washes to 100%, cleared and mounted in Permount (Thermo Fisher Scientific). […]
Binder,binding result [1],binding result [2],binding result [3]
"GMF-3E4 rabbit monoclonal IgG antibody (antibody, V domains shown) VH: QSVKESEGRLVTPGTPLTLTCTVSGFSLSDYWMSWVRQAPGKGLEWIGIAGYSDNTYYASRAKGRFTISKTSTTVVLKITRPTTEDTATYFCVRDLYGVYSSGTTLWGPGTLVTVSS VL: ELVMTQTPSPVSAAVGGTVTISCQSSQSVYNNNRLAWFQQKPGQPPKLLIYYASTLASGVSSRFKGSGSGTQFTLIISDVVCDDAATYYCQGYYSGGITGFGGGTEVVVK",no binding,,
"1A3 conjugated with pHrodo iFL Red dye (antibody, V domains shown, pHrodo iFL Red dye conjugated to the antibody; positions not given, also called 1A3-pHrodo; 1A3 pHrodo) VH: QSVKESEGRLVTPGTPLRLTCTVAGYSLSRYHMCWVRQAPGKGLEWIGMIGGSGRTDYASWAKGRFTISKTSTTVDLKITSPTTEDTATYFCSTVYTDSDGDFWGPGTLVTVSS VL: ELDMTQTPSSKSVPVGGTVTINCQASESVYSNDRLAWFQQKPGQPPKLLIYYASTLASGVPSRFKGSGSGTQFTLTISDLECADAATYYCQSCYDMSSYGVAFGGGTELEIL",,binds,
"GMF-1A3 rabbit monoclonal IgG antibody (antibody, V domains shown, also called anti-cleaved-AREG 1A3 antibody; unconjugated 1A3) VH: QSVKESEGRLVTPGTPLRLTCTVAGYSLSRYHMCWVRQAPGKGLEWIGMIGGSGRTDYASWAKGRFTISKTSTTVDLKITSPTTEDTATYFCSTVYTDSDGDFWGPGTLVTVSS VL: ELDMTQTPSSKSVPVGGTVTINCQASESVYSNDRLAWFQQKPGQPPKLLIYYASTLASGVPSRFKGSGSGTQFTLTISDLECADAATYYCQSCYDMSSYGVAFGGGTELEIL",no binding,,binds
